# Test results taken from the DeepSol protein solubility set.
# Test: soluble on expression in E. coli; label from the status in PepcDB or PDB records
row,Sequence,soluble on expression in E. coli
1,MERMMLIAFDLEGTLTDMVSWELLHKKFETCGLAKKNAELFFSGRISYEEWAKLDASLWKGRRREEVEEVFKEVSLKDYAEELFRWLKEKGFKTAIITGGLMCLAKKVAEKLNPDYVYANELVFNEKGEITGDVIVRVTFDNKGEILERLKRELNPTLTVAVGDWKNDLPMFEVADISISLGEDHADYLAKDLREVKKILKEVLLETEKL,soluble
2,MERPGSGLAGVVVGCDDGRVEKLGPQAGFTAVACISWDNRLRLPLAGSLGLVRVDGVDATSVLAGLVLRLGAAGRPVLLDSLTIGGFNIVSPPGVERLTGSPVLAVYNYRPSLERLESGLRSSRLPLAGVRARVLSLVEEAAEASTPHGPVYLVAWGLEASEARRLVLETQVYGRKPEPVRIAHYTASEASEALRRV,not soluble
3,MERVSITERPDWREKAHEYGFNFHTMYGEPYWCEDAYYKLTLAQVEKLEEVTAELHQMCLKVVEKVIASDELMTKFRIPKHTWSFVRQSWLTHQPSLYSRLDLAWDGTGEPKLLENNADTPTSLYEAAFFQWIWLEDQLNAGNLPEGSDQFNSLQEKLIDRFVELREQYGFQLLHLTCCRDTVEDRGTIQYLQDCATEAEIATEFLYIDDIGLGEKGQFTDLQDQVISNLFKLYPWEFMLREMFSTKLEDAGVRWLEPAWKSIISNKALLPLLWEMFPNHPNLLPAYFAEDDHPQMEKYVVKPIFSREGANVSIIENGKTIEAAEGPYGEEGMIVQQFHPLPKFGDSYMLIGSWLVNDQPAGIGIREDRALITQDMSRFYPHIFVE,soluble
4,MERVVINVSGLRFETQMKTLAQFPETLLGDPEKRTQYFDPLRNEYFFDRNRPSFDAILYYYQSGGRLKRPVNVPFDIFTEEVKFYQLG,soluble
5,MESAKSIIGGHQNVILMRHGDRLDNFEPLWTSTAARPWDPPLAQDGKDRAFRTGQRIRSQLGVPIHRVFVSPFLRCIQTASEVVAALSAVDFDPIAMSSKDVLSIDNTKIKVAIEFGLSEIPHPIFIKSEVAPKDGKFDFKISDLEAMFPEGTVDSNVDMVYKEVPEWGESAQAFEDRYYKTVKILAEKYPSENLLLVTHWGAVSVAFYNYFKDATKYVVDYCGSVEMRRQILNGDGFGKFEVVTSHGVSYKYTKIPVHDHVVVSRQSPL,soluble
6,MESEMSDPQPLQEERYDMSGARLALTLCVTKAREGSEVDMEALERMFRYLKFESTMKRDPTAQQFLEELDEFQQTIDNWEEPVSCAFVVLMAHGEEGLLKGEDEKMVRLEDLFEVLNNKNCKALRGKPKVYIIQACRGEHRDPGEELRGNEELGGDEELGGDEVAVLKNNPQSIPTYTDTLHIYSTVEGYLSYRHDEKGSGFIQTLTDVFIHKKGSILELTEEITRLMANTEVMQEGKPRKVNPEVQSTLRKKLYLQ,soluble
7,MESKLEQNVTAMMSSTGASGITVADSEGVRLHSAGKITDMANVGSLMIADAKNMFPKGTRNKKNSYPIVTLHSSDGSKTTKFLFENLKILNVLFKNQQISYYLLQKPEISGFSYKKSVFFSNFLSENLKIF,soluble
8,MESLIGLVNRIQRACTVLGDYGGGTGSNAFNSLWEALPTVAVVGGQSSGKSSVLESIVGRDFLPRGSGIVTRRPLVLQLHKTDDGTEEYAEFLHLPKKQFTDFALVRREIQDETDRITGKNKQISPVPIHLSIYSPNVVNLTLIDLPGLTKVAVEGQPETIAEDIESMVRTYVDKPNCIILAISPANQDIATSDAIKLAKDVDPTGERTFGVLTKLDLMDKGTNALEVLEGRSYRLQHPWVGIVNRSQADINKNVDMMLARRKEREYFDTSPDYGHLASKMGSEYLAKLLSKHLESVIRTRIPSILSLINKSIEELERELDRMGRPVAVDAGAQLYTILEMCRAFDKIFKEHLDGGRPGGDRIYGVFDNQLPAALKKLPFDRHLSLQSVKKIVSEADGYQPHLIAPEQGYRRLIEGALGYFRGPAEASVDAVHYVLKELVRKSISETEELKRFPSLQVELAAAANSSLEKFREESKKSVIRLVDMESAYLTAEFFRKLPQEIERPVTNSKNQTASPSSATLDQYGDGHFRRIASNVSAYVNMVSDTLRNTIPKACVYCQVRQAKLALLNYFYSQISKREGKQLGQLLDEDPALMDRRLECAKRLELYKKARDEIDAVAWVR,not soluble
9,MESLTLQPIARVDGAINLPGSKSVSNRALLLAALACGKTALTNLLDSDDVRHMLNALSALGINYTLSADRTRCDITGNGGALRAPGALELFLGNAGTAMRPLAAALCLGQNEIVLTGEPRMKERPIGHLVDSLRQGGANIDYLEQENYPPLRLRGGFTGGDIEVDGSVSSQFLTALLMTAPLAPKDTIIRVKGELVSKPYIDITLNLMKTFGVEIANHHYQQFVVKGGQQYHSPGRYLVEGDASSASYFLAAGAIKGGTVKVTGIGRKSMQGDIRFADVLEKMGATITWGDDFIACTRGELHAIDMDMNHIPDAAMTIATTALFAKGTTTLRNIYNWRVKETDRLFAMATELRKVGAEVEEGHDYIRITPPAKLQHADIGTYNDHRMAMCFSLVALSDTPVTILDPKCTAKTFPDYFEQLARMSTPA,not soluble
10,MESSKKTSRSRSTTQEAVRDIKKYIRDNRLRTGDLLPSEAFLCEELGCSRSAIREAIRALVTLDIVEVRHGYGTFVSRMSLEPLINGMVFRTVLDNDTSVENLFYVVDTREILDLSLGEELIEVFTDDDRELLLDLVDKMREHNDQGESFVVEDQKFHRALLARTKNPLIRELNDAFWQIQTEAQPMLNLAMPADIDETIKAHSDIVEALSSGNIDDYRSAVLAHYAPFRRMISNMLDAH,not soluble
11,METFYRTHSYLVEHTNAPVRRDLMDEIDWNDRLIGIKGTRGVGKTTFLLQYAKEKFGTDHSCLFINMNNFYFSKYTLVEFAAEFVKRGGKVLLIDQVFKYPEWSHDLRACYEMFPTLKIIFTGSSVMRLKEENPELSGIAKVYYLRGFSFREYLNLQSGNCFRAYTLQEILENHEQIAKTILRNVKPLDYFQDYLHHGFYPFFLEKRNFSENLLKTMNMMIEVDILLIKQIELKYLSKIKKLLYLLAVDGPVAPNVSQLATEIQTSRATVMNYIKYLADARLINMVYPKGEEFPKKPSKLMMHNTNLMYSIYPVKVEEQDVLDTFFMNTLYKDHKLYKGDKGTSFMVDNGLHFRICAEGCKFKNNPNVYYALHKLELGHGNMIPLWLFGFLY,not soluble
12,METIKALEKFMEFDRLQKDCSDKLDRERERRMKAEREIARKNCGGNPCERELKSERSNVKRLEYQLDAEKEKVKFYKRELERDRYLSSRYLTSSSDPHEKPLPNYTFPRIKNVSPLTTEATGSVEVAPPSTDVTEPISDVTPSVDVEPEHPPAF,not soluble
13,METKPSQGLYPLHRCKTIHLVRHAQGIHNVEGEKNHKAYLSEDLFDAHLTPLGWQQVDNLHKHVNASGISNRIELVVVSPLLRTLQTAVGTFGGEGYKDGVNTPLLMTAGAGNSDRPAISRLNRPPFIAVESCREHLGVHPCDRRSNITKYRELFPAIDFSLIETDEDVLWKPDIREEDKDIATRGVKFFNWLSTRKEKEIAVVTHSGFLYQTLNSFGNDCDPSVKNEISKKFVNCELRSFVLVDKCMSSSDPPMTNYPGTILTGEDASSDIADQK,soluble
14,METKYLRINPADNVAVAIVNLPAGEHLSVDGIEITLNEDIPAGHKFALKDFAEGENVIKYGYPIGHARMAKKQGDWMNETNIKTNLAGLLEYTYHPTQVTLDIPHKNLTFKGYRRKNGDVGVRNEIWIIPTVGCVNGIIGQLAEGLRRETEGKGVDAIVAFPHNYGCSQLGDDHENTKKILRDMVLHPNAGAVLIVGLGCENNQPDVFREFLGDYDQDRVKFMVTQKVGDEYEEGMDILRDLYAKASKDERTEVPLSELRVGLKCGGSDGFSGITANPLLGMFSDFLIAQGGTSVLTEVPEMFGAETILMNRCENKDLFEQTVHLINDFKEYFLSHGEPVGENPSPGNKAGGISTLEEKALGCTQKCGKSYVSGVMPYGERLQKKGLNLLSAPGNDLVAATTLAASGCHMVLFTTGRGTPFGTFVPTMKISTNSTLAKNKPGWIDFNAGVIVENEPMEKTCERFIEYVIKVASGEFVNNEKKGYREIAIFKTGVTL,not soluble
15,METLSNIQCFVRSAEAGSFAEAARRLGLTPAGVGKNVARLESNLGVRLFQRSTRRLTLTEAGERFLQEVGGSLEGIQTALANVSSVGNQPSGTLKVSMGLAFGRDYILPLLGEFLERYPDIVPDWHFDNRQVDLIGEGFDAAIGGGFELPPGVVARNLTPGHLILLASPTYLRDKPPIRHPGDLGGFDGIRIRSPQTGRVRSWPLRRRNGEEAPIELRERMTMSDPEATCEVAAMGLGITLVCMQHAYAYLESGALVRVLPDWYVDAGNTSLYYAANKLLPAKTRVFVDFVVDYFRRQDLARRFSAFPTG,not soluble
16,METQKQTRRRGEKLENTILTAAWDQLNKVGYKDLTITEIASLAGTNKTTIYRRWPNKSLLVVSAFSKFVPRPKMHIPNSGNLRDDLVKLFEQLVNQLEFLTSGKFEGLLLDRLRDTSIDKVFGRVDENNALQKFIVIILQRAEKRGELKINQLSQRVLELPFLLLLNEVISTRGIVPKESLTEIVDKILLPVFLRSN,not soluble
17,METRRAERINKLIQALKRSDKIHLKDAANLLRVSEMTIRRDLSAEPTSVILLGGYVVMDPKSNNANNYFVSDQQAKQVEEKRRIGQLAAQLIIENDTVFFDCGTTIPWIIDEIDEELAFTAICYSLNTFLALQDKPNCKVILCGGEFKPNNCIFTPLSQQSELDNICPNKAFISAAGVSIEYGATCFNFDEILLKHRAMAKSQYKILVADHSKFGKIKPASIGTLAQFDALVTDRPPVAEFYLFFSQHSVKIYC,not soluble
18,MEVIKITPRGYCYGVVDAMVIARNAALDPSLPRPIYILGMIVHNKHVTDAFAEEGIITLDGENRLEILEKIDHGTVIFTAHGVSPEVKKRALEKGLVTIDATCPDVTKTHRLIEQKLADGYDIIYIGKKGHPEPEGAVGINPERIHLVETIDDVERLSIHNERIMVTNQTTMSQWDVADIMAKVKEKYPHVEMHKEICLATQLRQEAVAEQAKEADVTIVVGDPRSNNSNRLAQVSEEIAGTKAYRVADVTEIDINWIKDAKKVAVTAGASTPTPITKEVIDFLEQFDPNDPSTWKRERKVPLQKILPKVKTKKEE,not soluble
19,MEVKIEETDWDEGVPGISFLKDAFSREEISPPKDDKNRKKEEVRMKLESGEYSVVYRCPTFDEILNENGQKIDLVQCKNCFGFLSARTGGHMKNHKNQRCKPLNGPPEKKPKLDPQVVGNLQNHILDFVTESGVSLNIAESEKFRIFIISMIITGNPNVNVDEHQFLSGEWIRKTMKEKSCQYLDNIGAELKDPVSKGDACLILDYGRQLDDTFSIFVSYTNRSSGYFSLRVIPLAFTPLFEKKITEKTLDYILHATDRVGLPKEHVLKLKVVAEGATNMLKLGEYFDNCNLFTVCLSFSSKMCRKSFRSTETVEKFDNFIRKITCESDRKRNRNLWNDFLQTPALQSLINIYVLSLILLCFQLTEQLSRTPAQSRANEWLASYHCARDILHVFPQIADLKDDRIEPLVDELRQCKGVLEDCFEIFSLFENPLKLLEQPEQQIQNVAGCLAAVAKMAKLSIAHYTKITVTDVHLICAFLSPDSKNLKNFPAPKKNKAYRIVNTLMKDVVVPPPSLSQPILSPLLMAIKNDPSPIPTVSQEFNDYVQLVVSSKDATLAPLEFWAKYQERFPRMSEIAAKNFCVMSSPGVCGPSFIVLRSLFRVDRHSKFPDTTELMMISYLMANELK,not soluble
20,MEWKTVVKPHTERINVKRSEFYATIFPVKDEKDFREKLKEVSKRDATHNCWAYRIFSPNGILEHSSDDGEPSGTAGRPILGALKKYDLMNTAIVVTRYFGGVKLGVRGLIEAYSSAAEMAVKGAELRKLRLMKEFEVEVDYQELNNVFRVVEMMGLELVEMDYTERGAKILLRGLEVPENLVIKTIRDVLI,soluble
